From patent US10760049B2, “Generation of neural stem cells from undifferentiated human embryonic stem cells” (ES Cell International PTE Ltd., priority 2002, dated 2020)

Tests used:
[1] = test system: hES cell derived neural progenitors; test: Directed differentiation of neural progenitors towards a midbrain fate; scoring of TH+ clumps and TH+ neurons; assay type: cell-based, human; conditions: for effect on the proportion of TH+ clumps: added at 10 ng/ml to IBMX, Forskolin, PMA, dopamine and AA
Description: Neurospheres that were generated from noggin treated ES cell colonies as described above (Example 1) were propagated 21-35 days in NPM supplemented with FGF-2 and EGF. At this point the spheres were chopped into small clumps (2000-3000 cells per clump). FGF-2 and EGF were removed from the medium and the progenitors were directed to take a midbrain fate by treatment with various factors for 6-8 days. During treatment with the various factors the clumps were either cultured in suspension or plated on poly-D-lysine and laminin. The factors included. FGF1, FGF8, FGF17 (R&D Systems) at concentrations of 100-200 ng/ml SHH (R&D Systems) at 0.5-1 μg/ml. Other signal transduction inducers: cAMP inducers: IBMX (Sigma, 0.25 mM), forskolin (Sigma 50 μM), PKC inducers PMA (Sigma 200 nM) and dopamine (Sigma 20 μM) were also used. The medium was also supplemented with the survival factors Ascorbic acid (AA) (Sigma) at concentration of 400-800 μM and NT4 (R&D Systems) at concentration of 20 ng/ml. The medium was changed every other day. To induce further differentiation into neurons, the spheres were again disaggregated into small clumps and plated on poly-D-lysine (30-70 kDa. 10 μg/ml, Sigma) and laminin (4 μg/ml, Sigma) and cultured in NPM in the absence of the factors and in the presence of AA with or without NT4 for 5-10 days. Differentiated cells were analysed by indirect immunofluorescence (as described in example 1) for the expression of β-tubulin type III (Sigma, 1:1000-3000) Tyrosine hydroxylase (TH) (Sigma anti mouse monoclonal, 1:250-500 and Pel-Freez anti rabbit polyclonal, 1:50-100) dopamine transporter (DAT;_Chemicon; rabbit polyclobal 1:50-100) and Nurr1 (Santa Cruz, Calif.; rabbit poly clonal 1:100-200). The proportion of clumps of cells that were comprised of a significant number of TH+ cells (>50 cells) was scored. Double immunostaining for TH and β-tubulin type III was used to analyse the percentage of cells within clumps expressing TH from the total number of neurons β-tubulin type III+cells). Multiple confocal microscopy images of consecutive planes through the clump were projected into one image for this analysis (FIG. 14) Ten-fifteen random fields were analysed.

[2] = test system: undifferentiated human ES cell clumps; test: hES cell clumps cultured in suspension in NPM+FGF2 with or without noggin; indirect immunofluorescence for neural and non-neural markers; assay type: cell-based; conditions: for proportion of cells expressing endodermal and mesodermal markers: noggin 350 and 700 ng/ml versus no noggin, then a week of differentiation
Description: In an alternative approach, undifferentiated human ES cell clumps of about 200 cells were transferred into NPM and cultured in suspension in the presence of noggin (350 and 700 ng/ml) for approximately 3 weeks. To further induce neural differentiation, proliferation and prevent the differentiation of neural progenitors the medium was also supplemented with human recombinant FGF-2 (20 ng/ml). LIF (10 ng/ml) was also included in the medium in early experiments. The media was replaced twice a week. Under these culture conditions the clumps of hES cells turned into round spheres within 7 days (FIG. 3 C,D).
To evaluate the effect of these culture conditions, we have evaluated the phenotype of cells within clumps following three weeks of culture. We have examined two concentrations of noggin (350 and 700 ng/ml) in comparison to culture in NPM supplemented with FGF2 in the absence of noggin. The clusters were disaggregated into single cells or small clumps that were plated, cultured for 4 hours on laminin, fixed and analysed by indirect immunofluorescence for the expression of the early neural markers nestin, A2B5 and N-CAM. Markers of endoderm (probably extraembryonic; low molecular weight (LMW) cytokeratin and laminin) and mesoderm (muscle specific actin and desmin) were examined after a week of differentiation. Immunofluorescence methods and source of antibodies are described below in section (C).
To analyse and differentiate between the effect of NPM supplemented with FGF2 and noggin on the differentiation of the hES cell clusters we have characterized and compared the differentiation of these clusters following culture in three different media (FIG. 5): (a) NPM supplemented with b-FGF and noggin (700 ng/ml), (b) the same medium without noggin and (c) knockout (KO) medium. After three weeks of culture a significant difference in the morphology of the clusters was observed. Clusters that were cultured in KO medium had the typical morphology of embryoid bodies (EBs, FIG. 5c). Clusters that were cultured in NPM and FGF2 were characterized by cystic structures and areas of dense cells resembling neural spheres (FIG. 5b). Clusters that were cultured in the presence of noggin had the typical morphology of neural spheres without cystic structures (FIG. 5a).
Clusters that were cultured in NPM with (FIG. 5a) or without noggin (FIG. 5b) were further cultured for an additional 3 weeks in NPM supplemented with FGF2 in the absence of noggin (FIG. 5).
To characterize and compare the phenotype of cells within the clusters following differentiation and propagation at the various culture conditions (FIG. 5), the clusters were disaggregated after 3 weeks in culture into single cells or small clumps that were plated, cultured for 4 hours on laminin, fixed and analysed for the expression of the early neural markers nestin, A2B5, N-CAM, PSA-NCAM and β-tubulin III (FIG. 6). The same analysis was done after additional 3 weeks of culture in NPM supplemented with FGF2 (FIG. 7).
The percentage of cells within the clumps that expressed non-neural markers at 3 weeks (FIG. 8) and 6 weeks (FIG. 9) of the same floating cultures as above was analysed. Indirect immuno fluorescence analysis of the expression of non-neural markers was performed following disaggregation of the clumps and one week of differentiation on laminin.
(§1) In general, for the immunophenotyping of disaggregated neural progenitor cells and differentiated neurons, fixation with 4% paraformaldehyde for 20 minutes at room temperature was used unless otherwise specified. It was followed by blocking with 5% heat inactivated goat serum (Dako) and permeabilization with 0.2% Triton X (Sigma) in PBS with 0.1% BSA for 30 minutes. Samples were incubated with the primary antibodies at room temperature for one hour. […]

[3] = test system: undifferentiated human ES cell clumps; test: RT-PCR of non-neural marker transcripts in noggin treated hES cell clumps; assay type: cell-based
Description: At the RNA level, RT-PCR analysis confirmed that in the noggin treated clumps the expression of the endodermal (probably extraembryonic) marker alpha-fetal protein was reduced/undetectable at 3 weeks. This marker was also undetectable at 6 weeks.
RT-PCR was performed as previously described (Reubinoff et al., 2001). Primer sequences (forward and reverse) and the length of amplified products were as previously described (Reubinoff et al 2001) for alpha-feto-protein and HNF3a and as follows for keratin 8: […]

[4] = test system: human ES cells (HES-1 cell line); test: Noggin-directed differentiation of hES cell colonies on feeders; immunophenotype of derived spheres and rosette areas; assay type: cell-based
Description: To derive enriched preparations of neural progenitors, differentiation of human ES cells was directed into neural fate by transfer of undifferentiated hES cell clumps onto fresh feeders and culture in a modified hES cell medium with reduced serum concentration and in the presence of the BMP antagonist noggin. Specifically, human ES cells (HES-1 cell line, Reubinoff et al 2000, PCT/AU99/00990) with a stable normal (46XX) karyotype were cultured on mitomycin C mitotically inactivated mouse embryonic fibroblast feeder layer in gelatine coated tissue culture dishes as previously described (Reubinoff et al., 2000 PCT/AU99/00990 and PCT/AU01/00278). To induce differentiation, at the usual passage, clumps of undifferentiated ES cells were plated on fresh feeders and cultured in the usual hES medium supplemented with 10% serum (instead of 20%) and 500 ng/ml of noggin (R&D systems). Noggin (500 ng/ml) was further added to the medium every other day throughout a 6-8 day culture period (3-4 administrations). After 6-8 days, noggin was omitted and the cells were further cultured in the modified medium with 10% serum for additional 4-6 days. At this time about 12-14 days, about 70% of the colonies differentiated mostly into areas that were comprised of tightly packed small cells with a uniform grey opaque appearance under dark field stereo microscope (FIG. 1a, PCT/AU01/00278, PCT/AU01/00735). Other colonies differentiated into areas with structures that could resemble primitive neural rosettes (FIG. 1b).
Clumps of about 150 cells were mechanically isolated by using the razor-sharp edge of a micro glass pipette or a razor blade from the grey opaque areas and replated in serum-free medium supplemented with human recombinant FGF-2 and EGF. Specifically, the clusters of cells were transferred to plastic tissue culture dishes containing neural progenitors growth medium (NPM) that consisted of DMEM/F12 (1:1), B27 supplementation (1:50), glutamine 2 mM, penicillin 50 u/ml and streptomycin 50 μg/ml (Gibco), and supplemented with 20 ng/ml human recombinant epidermal growth factor (EGF), and 20 ng/ml fibroblast growth factor 2 (FGF2) (R & D Systems, Inc., Minneapolis, Minn.). Under these culture conditions the clumps formed free floating spherical structures within 24 hours and sequential propagation and expansion of the sphere cultures was possible as previously described (Reubinoff at al., 2001, PCT/AU01/00278) for prolonged periods (6 months).
During the initial weeks in culture, the spheres gradually acquired a uniform morphology (FIG. 3 A,B). A detailed analysis of marker expression by the cell within the spheres was conducted at 3-4, 8 and 12 weeks after derivation. The spheres were disaggregated into single cells that were plated, fixed and analysed by fluorescent immunohistochemistry for the expression of the early neural markers N-CAM, A2B5, PSA-NCAM and nestin. A high proportion of the cells expressed these markers (N-CAM 83±4% A2B5 84±4%, nestin 69±6% PSA-NCAM 74±2%) and the level of expression was stable during the 12 weeks period.
The phenotype of cells within the areas with structures that could resemble primitive neural rosettes (FIG. 1b) was also analyzed. These areas were mechanically dissected, and disaggregated. The cells were plated on laminin and cultured in NPM for two days.
as §1

[5] = three weeks in NPM+FGF2+noggin (700 ng/ml)
[6] = spheres derived from noggin treated colonies, 3-4, 8 and 12 weeks after derivation

## O=C1O[C@H]([C@@H](O)CO)C(O)=C1O [ascorbic acid, reference compound]
[1]; confocal microscopy, cellular level
  percentage of TH+ neurons from the total number of neurons (β-tubulin type III+ cells): 45%
[1]; factors for 6-8 days after removal of FGF-2 and EGF, then differentiation on poly-D-lysine and laminin with AA
  proportion of TH+ clumps (clumps with >50 TH+ cells): 35%

## FGF-1: fibroblast growth factor FGF1 (R&D Systems)
[1]
  effect on the proportion of TH+ clumps: did not increase

B1: noggin: BMP antagonist noggin (R&D systems) (protein, UniProt Q13253 28-232, looked up)
Noggin: QHYLHIRPAPSDNLPLVDLIEHPDPIFDPKEKDLNETLLRSLLGGHYDPGFMATSPPEDRPGGGGGAAGGAEDLAELDQLLRQRPSGAMPSEIKGLEFSEGLAQGKKQRLSKKLRRKLQMWLWSQTFCPVLYAWNDLGSRFWPRYVKVGSCFSKRSCSVPEGMVCKPSKSVHLTVLRWRCQRRGGQRCGWIPIQYPIISECKCSC
[2]; after additional 3 weeks of culture in NPM+FGF2 (6 weeks)
  cells expressing non-neural markers: undetectable or rare
[2]; noggin 700 ng/ml, three weeks
  percentage of cells expressing nestin and A2B5 versus NPM+FGF2 without noggin: slightly higher
[2]; three weeks
  proportion of cells expressing endodermal and mesodermal markers: significantly reduced after noggin treatment in a dose dependent manner
[2]; three weeks, listed as Noggin
  proportion of cells expressing endodermal and mesodermal markers: reduced in a dose dependent manner
[2]; noggin treated cultures after 3 weeks, one week of differentiation on laminin
  percentage of cells expressing non-neural markers: significant reduction
[2]; [5]
  percentage of cells expressing A2B5: 95.6%
  percentage of cells expressing NCAM: 73%
[2]; three weeks in NPM+FGF2+noggin, then additional 3 weeks in NPM+FGF2
  percentage of cells expressing NCAM: 93%
[3]; 3 weeks
  expression of endodermal marker alpha-fetal protein (RT-PCR): reduced/undetectable
  expression of transcripts of epidermal marker keratin-14 (RT-PCR): significantly reduced
[3]; 6 weeks
  expression of endodermal marker HNF3α (RT-PCR): reduced/undetectable
  expression of endodermal marker alpha-fetal protein (RT-PCR): undetectable
  expression of transcripts of epidermal marker keratin-14 (RT-PCR): undetectable
[4]; areas resembling primitive neural rosettes in noggin treated colonies, two days on laminin in NPM
  cells expressing N-CAM and nestin: 95-100%
[4]; noggin 500 ng/ml every other day for 6-8 days, 10% serum, on feeders, scored at about 12-14 days
  colonies differentiated mostly into areas of tightly packed small cells: about 70%
[4]; [6]
  cells expressing A2B5: 84±4%
  cells expressing N-CAM: 83±4%
  cells expressing PSA-NCAM: 74±2%
  cells expressing nestin: 69±6%

B2: FGF-8: fibroblast growth factor FGF8 (R&D Systems) (protein, UniProt P55075 23-233, looked up)
Fibroblast growth factor 8: QEGPGRGPALGRELASLFRAGREPQGVSQQHVREQSLVTDQLSRRLIRTYQLYSRTSGKHVQVLANKRINAMAEDGDPFAKLIVETDTFGSRVRVRGAETGLYICMNKKGKLIAKSNGKGKDCVFTEIVLENNYTALQNAKYEGWYMAFTRKGRPRKGSKTRQHQREVHFMKRLPRGHHTTEQSLRFEFLNYPPFTRSLRGSQRTWAPEPR
[1]
  effect on the proportion of TH+ clumps: did not increase
